From PMC10164551, “Structural basis of tRNAPro acceptor stem recognition by a bacterial trans-editing domain” come the findings set out here.

Data set [1] has as its target T1, ProXp-ala WT (Caulobacter crescentus, UniProt Q9ABV9 1-168).
T1 sequence: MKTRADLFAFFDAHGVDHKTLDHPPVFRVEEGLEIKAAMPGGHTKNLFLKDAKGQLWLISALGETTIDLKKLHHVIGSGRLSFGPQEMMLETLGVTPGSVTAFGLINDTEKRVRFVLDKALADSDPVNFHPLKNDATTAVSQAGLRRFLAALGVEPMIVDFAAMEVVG
Description: NMR; 100 μM each; EMSA: 81 nM duplex annealed in 50 mM sodium phosphate pH 7.5, 150 mM NaCl, 0-114 μM protein, 1 h room temp, 16% native gel in TBE; NMR: same phosphate buffer, 1. The note with it: protein: recombinant; tags: N-terminal His6 removed by thrombin; leaves Gly-Ser-His; hairpin; 7 bp stem, 3' ACCA single-stranded.

In data set [2] the target is T1, ProXp-ala WT. Description: NMR; 100 μM each; indistinguishable from microhelixPro; EMSA: 81 nM duplex annealed in 50 mM sodium phosphate pH 7.5, 150 mM NaCl, 0-114 μM protein, 1 h room temp, 16% native gel in TBE; NMR: same phosphate buffer, 1. The note with it: protein: recombinant; tags: N-terminal His6 removed by thrombin; leaves Gly-Ser-His; hairpin; 12 bp stem, 3' ACCA single-stranded.

In data set [3] the target is T1, ProXp-ala WT. Description: EMSA; apparent, Hill fit; EMSA: 81 nM duplex annealed in 50 mM sodium phosphate pH 7.5, 150 mM NaCl, 0-114 μM protein, 1 h room temp, 16% native gel in TBE; NMR: same phosphate buffer, 1. To be noted: protein: recombinant, tags: N-terminal His6 removed by thrombin, leaves Gly-Ser-His, label: 3' 6FAM on strand 1.

CGGCGAGUUCGCUCGCCGACCA (structured_RNA) [microhelixPro]: the binding result with ProXp-ala WT [1] is listed as “binds”.

As to CGGCGAGGGAGGUUCGAAUCCUCUCUCGCCGACCA (structured_RNA) [minihelixPro], the binding result with ProXp-ala WT [2] is “binds”.

B1: duplexPro A76U (dsRNA)
RNA 1: CGGCGAGGGAGGUU
RNA 2: AUCCUCUCUCGCCGACCU
As to B1, the Kd with ProXp-ala WT [3] (3' overhang 4 nt on strand 2) was 106 ± 16 µM.

B2: duplexPro A76C (dsRNA)
RNA 1: CGGCGAGGGAGGUU
RNA 2: AUCCUCUCUCGCCGACCC
For the molecule B2, the Kd with ProXp-ala WT [3] (3' overhang 4 nt on strand 2) stood at 87 ± 4 µM.

B3: duplexPro A76 (WT) (dsRNA)
RNA 1: CGGCGAGGGAGGUU
RNA 2: AUCCUCUCUCGCCGACCA
Consider B3, for which the Kd in the data set with ProXp-ala WT [3] (3' overhang 4 nt (ACCA) on strand 2) came to 33 ± 11 µM.

B4: duplexPro 3'pΔA76 (dsRNA)
RNA 1: CGGCGAGGGAGGUU
RNA 2: AUCCUCUCUCGCCGACC
modifications: 3' phosphate on terminal C of strand 2
In the case of B4, in the data set with ProXp-ala WT [3] (3' overhang 3 nt on strand 2), the Kd was found to be 63 ± 11 µM.

B5: duplexPro dA76 (dsRNA)
RNA 1: CGGCGAGGGAGGUU
RNA 2: AUCCUCUCUCGCCGACCA
modifications: 2'-deoxy-A at 3' terminus of strand 2
In the case of B5, the Kd in the data set with ProXp-ala WT [3] (3' overhang 4 nt on strand 2) turned out to be 34 ± 5 µM.

B6: duplexPro ΔA76 (dsRNA)
RNA 1: CGGCGAGGGAGGUU
RNA 2: AUCCUCUCUCGCCGACC
On to B6, for which, in the data set with ProXp-ala WT [3] (3' overhang 3 nt on strand 2), the Kd is 75 ± 12 µM.

B7: duplexPro A76G (dsRNA)
RNA 1: CGGCGAGGGAGGUU
RNA 2: AUCCUCUCUCGCCGACCG
For the molecule B7, the Kd with ProXp-ala WT [3] (3' overhang 4 nt on strand 2) was 66 ± 11 µM.
